Results taken from patent US7256012B2, “Fluorogenic protease substrates based on dye-dimerization” (3M Innovative Properties Company, priority 1997, dated 2007).

Molecular target: T1, trypsin (Bos taurus, UniProt P00760)
T1 construct: gene PRSS1
T1 sequence (P00760 24-246): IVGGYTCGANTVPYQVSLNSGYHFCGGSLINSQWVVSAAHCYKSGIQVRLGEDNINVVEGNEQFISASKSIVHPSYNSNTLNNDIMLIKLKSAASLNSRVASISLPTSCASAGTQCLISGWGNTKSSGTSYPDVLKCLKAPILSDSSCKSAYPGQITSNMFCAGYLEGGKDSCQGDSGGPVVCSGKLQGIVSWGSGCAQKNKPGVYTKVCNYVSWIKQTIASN
Assay: Hydrolysis of fluorogenic protease substrate by purified enzyme (trypsin), fluorescence intensity
Type: biochemical
Settings: for Average ratio w/ trypsin to w/o trypsin: average over emission 570-585 nm
Procedure: Enzymatic hydrolysis of the substrate from Example 1 was carried out in 50 mM carbonate buffer, pH 8.9 at room temperature. Fluorescence intensity of the solution prior to treatment with trypsin and after treatment with trypsin is shown in Table 1, for excitation wavelengths of 360 nm, 522 nm, 530 nm, and 553 nm, respectively. […] This is a characteristic of dye dimerization or stacking, as described above. […] Both the fluorescence and absorption results provided convincing evidence that ground-state interactions existed between dye molecules in the conjugate and became diminished after enzymatic cleavage.

[1] = Excitation 360 nm, emission 570 nm
[2] = Excitation 360 nm, emission 571 nm
[3] = Excitation 360 nm, emission 572 nm
[4] = Excitation 360 nm, emission 573 nm
[5] = Excitation 360 nm, emission 574 nm
[6] = Excitation 360 nm, emission 575 nm
[7] = Excitation 360 nm, emission 576 nm
[8] = Excitation 360 nm, emission 577 nm
[9] = Excitation 360 nm, emission 578 nm
[10] = Excitation 360 nm, emission 579 nm
[11] = Excitation 360 nm, emission 580 nm
[12] = Excitation 360 nm, emission 581 nm
[13] = Excitation 360 nm, emission 582 nm
[14] = Excitation 360 nm, emission 583 nm
[15] = Excitation 360 nm, emission 584 nm
[16] = Excitation 360 nm, emission 585 nm
[17] = Excitation 522 nm, emission 570 nm
[18] = Excitation 522 nm, emission 571 nm
[19] = Excitation 522 nm, emission 572 nm
[20] = Excitation 522 nm, emission 573 nm
[21] = Excitation 522 nm, emission 574 nm
[22] = Excitation 522 nm, emission 575 nm
[23] = Excitation 522 nm, emission 576 nm
[24] = Excitation 522 nm, emission 577 nm
[25] = Excitation 522 nm, emission 578 nm
[26] = Excitation 522 nm, emission 579 nm
[27] = Excitation 522 nm, emission 580 nm
[28] = Excitation 522 nm, emission 581 nm
[29] = Excitation 522 nm, emission 582 nm
[30] = Excitation 522 nm, emission 583 nm
[31] = Excitation 522 nm, emission 584 nm
[32] = Excitation 522 nm, emission 585 nm

Substance: TMR-Val-Pro-Arg-Gly-Lys-TMR (XPRGX; not fully specified; TMR dye at both ends) [T-VPRGK-T]
- Average ratio w/ trypsin to w/o trypsin (Excitation 360 nm): 26
- Fluorescence intensity w/ trypsin [1]: 8625
- Fluorescence intensity w/o trypsin [1]: 319
- ratio w/ trypsin to w/o trypsin [1]: 27
- Fluorescence intensity w/ trypsin [2]: 8817
- Fluorescence intensity w/o trypsin [2]: 347
- ratio w/ trypsin to w/o trypsin [2]: 25
- Fluorescence intensity w/ trypsin [3]: 9322
- Fluorescence intensity w/o trypsin [3]: 369
- ratio w/ trypsin to w/o trypsin [3]: 25
- Fluorescence intensity w/ trypsin [4]: 9189
- Fluorescence intensity w/o trypsin [4]: 365
- ratio w/ trypsin to w/o trypsin [4]: 25
- Fluorescence intensity w/ trypsin [5]: 9629
- Fluorescence intensity w/o trypsin [5]: 354
- ratio w/ trypsin to w/o trypsin [5]: 27
- Fluorescence intensity w/ trypsin [6]: 9719
- Fluorescence intensity w/o trypsin [6]: 410
- ratio w/ trypsin to w/o trypsin [6]: 24
- Fluorescence intensity w/ trypsin [7]: 9759
- Fluorescence intensity w/o trypsin [7]: 401
- ratio w/ trypsin to w/o trypsin [7]: 24
- Fluorescence intensity w/ trypsin [8]: 9776
- Fluorescence intensity w/o trypsin [8]: 378
- ratio w/ trypsin to w/o trypsin [8]: 26
- Fluorescence intensity w/ trypsin [9]: 9981
- Fluorescence intensity w/o trypsin [9]: 379
- ratio w/ trypsin to w/o trypsin [9]: 26
- Fluorescence intensity w/ trypsin [10]: 9872
- Fluorescence intensity w/o trypsin [10]: 392
- ratio w/ trypsin to w/o trypsin [10]: 25
- Fluorescence intensity w/ trypsin [11]: 9788
- Fluorescence intensity w/o trypsin [11]: 361
- ratio w/ trypsin to w/o trypsin [11]: 27
- Fluorescence intensity w/ trypsin [12]: 9960
- Fluorescence intensity w/o trypsin [12]: 375
- ratio w/ trypsin to w/o trypsin [12]: 27
- Fluorescence intensity w/ trypsin [13]: 9783
- Fluorescence intensity w/o trypsin [13]: 376
- ratio w/ trypsin to w/o trypsin [13]: 26
- Fluorescence intensity w/ trypsin [14]: 9591
- Fluorescence intensity w/o trypsin [14]: 347
- ratio w/ trypsin to w/o trypsin [14]: 28
- Fluorescence intensity w/ trypsin [15]: 9387
- Fluorescence intensity w/o trypsin [15]: 385
- ratio w/ trypsin to w/o trypsin [15]: 24
- Fluorescence intensity w/ trypsin [16]: 9427
- Fluorescence intensity w/o trypsin [16]: 353
- ratio w/ trypsin to w/o trypsin [16]: 27
- Average ratio w/ trypsin to w/o trypsin (Excitation 522 nm): 28
- Fluorescence intensity w/ trypsin [17]: 40193
- Fluorescence intensity w/o trypsin [17]: 1378
- ratio w/ trypsin to w/o trypsin [17]: 29
- Fluorescence intensity w/ trypsin [18]: 41416
- Fluorescence intensity w/o trypsin [18]: 1525
- ratio w/ trypsin to w/o trypsin [18]: 27
- Fluorescence intensity w/ trypsin [19]: 42506
- Fluorescence intensity w/o trypsin [19]: 1480
- ratio w/ trypsin to w/o trypsin [19]: 29
- Fluorescence intensity w/ trypsin [20]: 43406
- Fluorescence intensity w/o trypsin [20]: 1509
- ratio w/ trypsin to w/o trypsin [20]: 29
- Fluorescence intensity w/ trypsin [21]: 44241
- Fluorescence intensity w/o trypsin [21]: 1645
- ratio w/ trypsin to w/o trypsin [21]: 27
- Fluorescence intensity w/ trypsin [22]: 45037
- Fluorescence intensity w/o trypsin [22]: 1643
- ratio w/ trypsin to w/o trypsin [22]: 27
- Fluorescence intensity w/ trypsin [23]: 45519
- Fluorescence intensity w/o trypsin [23]: 1587
- ratio w/ trypsin to w/o trypsin [23]: 29
- Fluorescence intensity w/ trypsin [24]: 45648
- Fluorescence intensity w/o trypsin [24]: 1672
- ratio w/ trypsin to w/o trypsin [24]: 27
- Fluorescence intensity w/ trypsin [25]: 45980
- Fluorescence intensity w/o trypsin [25]: 1629
- ratio w/ trypsin to w/o trypsin [25]: 28
- Fluorescence intensity w/ trypsin [26]: 45745
- Fluorescence intensity w/o trypsin [26]: 1673
- ratio w/ trypsin to w/o trypsin [26]: 27
- Fluorescence intensity w/ trypsin [27]: 45757
- Fluorescence intensity w/o trypsin [27]: 1595
- ratio w/ trypsin to w/o trypsin [27]: 29
- Fluorescence intensity w/ trypsin [28]: 44936
- Fluorescence intensity w/o trypsin [28]: 1665
- ratio w/ trypsin to w/o trypsin [28]: 27
- Fluorescence intensity w/ trypsin [29]: 44724
- Fluorescence intensity w/o trypsin [29]: 1567
- ratio w/ trypsin to w/o trypsin [29]: 29
- Fluorescence intensity w/ trypsin [30]: 44076
- Fluorescence intensity w/o trypsin [30]: 1599
- ratio w/ trypsin to w/o trypsin [30]: 28
- Fluorescence intensity w/ trypsin [31]: 43282
- Fluorescence intensity w/o trypsin [31]: 1601
- ratio w/ trypsin to w/o trypsin [31]: 27
- Fluorescence intensity w/ trypsin [32]: 42928
- Fluorescence intensity w/o trypsin [32]: 1527
- ratio w/ trypsin to w/o trypsin [32]: 28
